Experimental data taken from publication PMC4024478 (Protein expression and purification, 2014).

Key:
Experiment in all cases: pull-down
[1] = target: PDZ3 Domain-HaloTag fusion protein (PSD-95 PDZ3) on HaloLink resin (Mus musculus, UniProt Q62108 302-402)
[2] = target: MBP-GST fusion protein containing an internal PDZ2 Domain Tag (Mus musculus, UniProt Q62108 155-249)
[3] = target: MBP fusion protein containing a C-terminal PDZ2 Tag (Mus musculus, UniProt Q62108 155-249)
[4] = target: HaloTag-PDZ1+PDZ2 fusion protein (PSD-95 PDZ1-2) on HaloLink resin (Mus musculus, UniProt Q62108 61-249)
Sequence of HaloTag-PDZ1+PDZ2 fusion protein (PSD-95 PDZ1-2) on HaloLink resin (Q62108 61-249): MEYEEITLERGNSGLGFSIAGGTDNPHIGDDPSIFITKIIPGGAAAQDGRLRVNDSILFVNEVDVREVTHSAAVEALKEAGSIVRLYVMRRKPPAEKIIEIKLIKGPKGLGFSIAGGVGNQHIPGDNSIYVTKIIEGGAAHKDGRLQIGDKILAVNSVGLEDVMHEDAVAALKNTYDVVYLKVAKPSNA

PDZ2 domain of PSD-95 = PDZ2 domain of PSD-95 (Mus musculus, UniProt Q62108 155-249)
Sequence of PDZ2 domain of PSD-95 (Q62108 155-249): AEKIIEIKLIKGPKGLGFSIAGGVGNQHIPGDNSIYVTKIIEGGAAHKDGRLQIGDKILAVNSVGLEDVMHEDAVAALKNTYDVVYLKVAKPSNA

[5] = target: MBP fusion protein containing an N-terminal PDZ2 Tag (Mus musculus, UniProt Q62108 155-249)
Sequence of MBP fusion protein containing an N-terminal PDZ2 Tag (Q62108 155-249): as above

[6] = target: PDZ2 Domain-HaloTag fusion protein (PSD-95 PDZ2) on HaloLink resin (Mus musculus, UniProt Q62108 155-249)
Sequence of PDZ2 Domain-HaloTag fusion protein (PSD-95 PDZ2) on HaloLink resin (Q62108 155-249): as above

Sequence of MBP fusion protein containing a C-terminal PDZ2 Tag (Q62108 155-249): as above
Sequence of MBP-GST fusion protein containing an internal PDZ2 Domain Tag (Q62108 155-249): as above
Sequence of PDZ3 Domain-HaloTag fusion protein (PSD-95 PDZ3) on HaloLink resin (Q62108 302-402): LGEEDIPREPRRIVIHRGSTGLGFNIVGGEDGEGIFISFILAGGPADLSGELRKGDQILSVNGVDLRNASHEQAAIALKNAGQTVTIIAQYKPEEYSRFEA

binding result [1] | binding result [2] | binding result [3] | binding result [4] | binding result (PDZ2 domain of PSD-95) | binding result [5] | binding result [6] | Binder
binds |  |  |  |  |  |  | YKQTSV [YKQTSV peptide]
 | binds | binds | binds | binds | binds | binds | SIESDV [SIESDV peptide (free GluN2B Peptide Ligand)]
